Experimental data: US20250152742A1, “COMPOSITIONS AND METHODS FOR NEUROLOGICAL DISEASES” (Trames Bio, Inc., priority 2022, published 2025)
Where a chain is given by its changes, count along the chain named. Numbers in names are those of the source.

Test system: engineered chimeric receptor SEQ ID NO: 33 and its mutants (human α7-nAChR ligand binding domain / human GlyRα1 ion pore domain) in Lenti-X 293T cells
Experiment: YFP fluorescence quenching anion reporter plate reader assay (percent quench, EC50)
Format: cell-based
Settings: for YFP fluorescence quenching using CNL001 (percent quench): receptor named in row; for YFP fluorescence quenching using Facinicline, 30 nM fac: ligand Facinicline 30 nM; for YFP fluorescence quenching using Facinicline, 300 nM fac: ligand Facinicline 300 nM; for YFP fluorescence quenching using Facinicline, 30 uM fac: ligand Facinicline 30 uM; for YFP fluorescence quenching using TC-6987, 1 uM tc6987: ligand TC-6987 1 uM; for YFP fluorescence quenching using TC-6987, 10 uM tc6987: ligand TC-6987 10 uM; for YFP fluorescence quenching using TC-6987, 500 uM tc6987: ligand TC-6987 500 uM; for YFP fluorescence quenching using Varenicline, 3 nM var: ligand Varenicline 3 nM; for YFP fluorescence quenching using Varenicline, 30 nM var: ligand Varenicline 30 nM; for YFP fluorescence quenching using Varenicline, 300 nM var: ligand Varenicline 300 nM; for YFP fluorescence quenching using Varenicline, 500 nM var: ligand Varenicline 500 nM; for YFP fluorescence quenching using Varenicline, 1 uM var: ligand Varenicline 1 uM
Summary of the method: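 Percent quench compares mean YFP signal over the final 10 s with the 15 s baseline before ligand, added in iodide-containing extracellular solution (pH 7.2). Cells were LX293T carrying a YFP anion reporter, transiently transfected with the channel construct; plates were preincubated 30 min at 37 °C.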

[1] = 1 nM CNL001, first column so headed
[2] = 1 nM CNL001, second column so headed
[3] = 3 nM brd (TC-5619/Bradanicline)
[4] = 10 nM CNL001, first column so headed
[5] = 10 nM CNL001, second column so headed
[6] = 30 nM brd (TC-5619/Bradanicline)
[7] = 50 nM CNL001, first column so headed
[8] = 50 nM CNL001, second column so headed
[9] = 100 nM CNL001, first column so headed
[10] = 100 nM CNL001, second column so headed
[11] = 300 nM brd (TC-5619/Bradanicline)
[12] = 1 uM CNL001, first column so headed
[13] = 1 uM CNL001, second column so headed

B1: CODA807: engineered receptor: Y115D, L131E in SEQ ID NO: 33 (protein)
chain: MRCSPGGVWLALAASLLHVSLQGEFQRKLYKELVKNYNPLERPVANDSQPLTVYFSLSLLQIMDVDEKNQVLTTNIWLQMSWTDHYLQWNVSEYPGVKTVRFPDGQIWKPDILLDNSADERFDATFHTNVEVNSSGHCQYLPPGIFKSSCPMDLKNFPMDVQTCKLKFGSWSYGGWSLDLQMQEADISGYIPNGEWDLVGIPGKRSERFYECCKEPYPDVTFTVTMRRRMGYYLIQMYIPSLLIVILSWISFWINMDAAPARVGLGITTVLTMTTQSSGSRASLPKVSYVKAIDIWMAVCLLFVFSALLEYAAVNFVSRQHKELLRFRRKRRHHKSPMLNLFQEDEAGEGRFNFSAYGMGPACLQAKDGISVKGANNSNTTNPPPAPSKSPEEMRKLFIQRAKKIDKISRIGFPMAFLIFNMFYWIIYKIVRREDVHNQ
modifications: synthetic sequence of chimeric LGIC
- YFP fluorescence quenching using CNL001 (percent quench) [1]: 0.885%
- YFP fluorescence quenching using CNL001 (percent quench) [2]: −1.707%
- YFP fluorescence quenching using TC-5619/Bradanicline (percent quench) (1 nM brd (TC-5619/Bradanicline)): −1.52%
- YFP fluorescence quenching using TC-5619/Bradanicline (percent quench) [3]: −5.35%
- YFP fluorescence quenching using CNL001 (percent quench) [4]: −0.567%
- YFP fluorescence quenching using CNL001 (percent quench) [5]: 0.043%
- YFP fluorescence quenching using TC-5619/Bradanicline (percent quench) (10 nM brd (TC-5619/Bradanicline)): −3.49%
- YFP fluorescence quenching using TC-6683 (percent quench) (30 nM TC-6683): −26.801%
- YFP fluorescence quenching using TC-5619/Bradanicline (percent quench) [6]: −2.16%
- YFP fluorescence quenching using CNL001 (percent quench) [7]: 5.141%
- YFP fluorescence quenching using CNL001 (percent quench) [8]: 9.409%
- YFP fluorescence quenching using ABT-126 (percent quench) (50 nM abt (ABT-126)): −1.68%
- YFP fluorescence quenching using CNL001 (percent quench) [9]: 9.796%
- YFP fluorescence quenching using CNL001 (percent quench) [10]: 11.009%
- YFP fluorescence quenching (percent quench) (100 nM CNL002): −5.71%
- YFP fluorescence quenching using ABT-126 (percent quench) (100 nM abt (ABT-126)): −2.25%
- YFP fluorescence quenching using AZD-0328 (percent quench) (100 nM azd0328): 24.49%
- YFP fluorescence quenching using TC-5619/Bradanicline (percent quench) (100 nM brd (TC-5619/Bradanicline)): 4.18%
- YFP fluorescence quenching using TC-6683 (percent quench) (300 nM TC-6683): −25.363%
- YFP fluorescence quenching using ABT-126 (percent quench) (300 nM abt (ABT-126)): −2.37%
- YFP fluorescence quenching using AZD-0328 (percent quench) (300 nM azd0328): 45.34%
- YFP fluorescence quenching using TC-5619/Bradanicline (percent quench) [11]: 70.2%
- YFP fluorescence quenching using CNL001 (percent quench) [12]: 27.914%
- YFP fluorescence quenching using CNL001 (percent quench) [13]: 29.109%
- YFP fluorescence quenching (percent quench) (1 uM CNL002): 13.03%
- YFP fluorescence quenching using ABT-126 (percent quench) (1 uM abt (ABT-126)): 3.68%
- YFP fluorescence quenching using TC-5619/Bradanicline (percent quench) (1 uM brd (TC-5619/Bradanicline)): 43.11%
- YFP fluorescence quenching using TC-6683 (percent quench) (3 uM TC-6683): −23.651%
- YFP fluorescence quenching (percent quench) (10 uM ach (acetylcholine)): 15.45%
- YFP fluorescence quenching (percent quench) (30 uM CNL002): 25.2%
- YFP fluorescence quenching using TC-6683 (percent quench) (30 uM TC-6683): −26.235%
- YFP fluorescence quenching using AZD-0328 (percent quench) (30 uM azd0328): 71.21%
- YFP fluorescence quenching using TC-6683 (percent quench) (100 uM TC-6683): −24.182%
- YFP fluorescence quenching (percent quench) (100 uM ach (acetylcholine)): 13.77%
- YFP fluorescence quenching (percent quench) (1 mM ach (acetylcholine)): 27.42%
- YFP fluorescence quenching (percent quench) (3 mM ach (acetylcholine)): 53.62%
- YFP fluorescence quenching using Facinicline, 30 nM fac: 45.76
- YFP fluorescence quenching using Facinicline, 100 nM fac (ligand Facinicline 100 nM): 63.92
- YFP fluorescence quenching using Facinicline, 300 nM fac: 79.43
- YFP fluorescence quenching using Facinicline, 10 uM fac (ligand Facinicline 10 uM): 80.1
- YFP fluorescence quenching using Facinicline, 30 uM fac: 84.91
- YFP fluorescence quenching using TC-6987, 1 uM tc6987: 36.07
- YFP fluorescence quenching using TC-6987, 10 uM tc6987: 31.35
- YFP fluorescence quenching using TC-6987, 500 uM tc6987: 28.18

B2: CODA952: engineered receptor: Y140I in SEQ ID NO: 33 (protein)
chain: B1 chain with D115Y, E131L, Y140I
modifications: synthetic sequence of chimeric LGIC
- YFP fluorescence quenching using CNL001 (percent quench) [1]: 0.368%
- YFP fluorescence quenching using CNL001 (percent quench) [2]: −1.976%
- YFP fluorescence quenching using TC-5619/Bradanicline (percent quench) [3]: −2.45%
- YFP fluorescence quenching using CNL001 (percent quench) [4]: −3.923%
- YFP fluorescence quenching using CNL001 (percent quench) [5]: 4.348%
- YFP fluorescence quenching using TC-6683 (percent quench) (30 nM TC-6683): −27.7%
- YFP fluorescence quenching using TC-5619/Bradanicline (percent quench) [6]: 66.97%
- YFP fluorescence quenching using CNL001 (percent quench) [7]: 74.107%
- YFP fluorescence quenching using CNL001 (percent quench) [8]: 75.866%
- YFP fluorescence quenching using ABT-126 (percent quench) (50 nM abt (ABT-126)): −12.34%
- YFP fluorescence quenching using CNL001 (percent quench) [9]: 80.323%
- YFP fluorescence quenching using CNL001 (percent quench) [10]: 81.996%
- YFP fluorescence quenching (percent quench) (100 nM CNL002): 32.58%
- YFP fluorescence quenching using ABT-126 (percent quench) (100 nM abt (ABT-126)): −11.57%
- YFP fluorescence quenching using AZD-0328 (percent quench) (100 nM azd0328): −12.96%
- YFP fluorescence quenching using TC-6683 (percent quench) (300 nM TC-6683): −26.87%
- YFP fluorescence quenching using ABT-126 (percent quench) (300 nM abt (ABT-126)): −5.21%
- YFP fluorescence quenching using AZD-0328 (percent quench) (300 nM azd0328): −13.21%
- YFP fluorescence quenching using TC-5619/Bradanicline (percent quench) [11]: 78.48%
- YFP fluorescence quenching using CNL001 (percent quench) [12]: 83.489%
- YFP fluorescence quenching using CNL001 (percent quench) [13]: 82.208%
- YFP fluorescence quenching (percent quench) (1 uM CNL002): 69.08%
- YFP fluorescence quenching using ABT-126 (percent quench) (1 uM abt (ABT-126)): 3.93%
- YFP fluorescence quenching using TC-6683 (percent quench) (3 uM TC-6683): −31.2%
- YFP fluorescence quenching (percent quench) (10 uM ach (acetylcholine)): −1.97%
- YFP fluorescence quenching (percent quench) (30 uM CNL002): 73.28%
- YFP fluorescence quenching using TC-6683 (percent quench) (30 uM TC-6683): −33.12%
- YFP fluorescence quenching using AZD-0328 (percent quench) (30 uM azd0328): 68.5%
- YFP fluorescence quenching using TC-6683 (percent quench) (100 uM TC-6683): −24.67%
- YFP fluorescence quenching (percent quench) (100 uM ach (acetylcholine)): 2.79%
- YFP fluorescence quenching (percent quench) (1 mM ach (acetylcholine)): 58.81%
- YFP fluorescence quenching (percent quench) (3 mM ach (acetylcholine)): 66.9%
- YFP fluorescence quenching using Facinicline, 30 nM fac: −8.83
- YFP fluorescence quenching using Facinicline, 300 nM fac: 51.6
- YFP fluorescence quenching using Facinicline, 30 uM fac: 71.01
- YFP fluorescence quenching using TC-6987, 1 uM tc6987: 6.03
- YFP fluorescence quenching using TC-6987, 10 uM tc6987: 2.25
- YFP fluorescence quenching using TC-6987, 500 uM tc6987: −0.24
- YFP fluorescence quenching using Varenicline, 3 nM var (first column): −22.522
- YFP fluorescence quenching using Varenicline, 3 nM var (second column): −18.173
- YFP fluorescence quenching using Varenicline, 30 nM var (first column): −15.306
- YFP fluorescence quenching using Varenicline, 30 nM var (second column): −12.832
- YFP fluorescence quenching using Varenicline, 300 nM var (first column): −14.671
- YFP fluorescence quenching using Varenicline, 300 nM var (second column): −17.016
- YFP fluorescence quenching using Varenicline, 500 nM var (first column): −16.713
- YFP fluorescence quenching using Varenicline, 500 nM var (second column): −18.893
- YFP fluorescence quenching using Varenicline, 1 uM var (first column): −15.847
- YFP fluorescence quenching using Varenicline, 1 uM var (second column): −16.236
